Here are results for five molecules from PMC4110038, “The CD27L and CTP1L Endolysins Targeting Clostridia Contain a Built-in Trigger and Release Factor” (PLoS Pathogens, 2014).

Positions count from the first letter of the chain named. Names and notes keep the numbering of the source.

To fix the notation:
B1: CD27L endolysin C238R mutant, full length (enzyme, bacteriophage ΦCD27, UniProt B6SBV8 1-270, looked up)
chain: MKICITVGHSILKSGACTSADGVVNEYQYNKSLAPVLADTFRKEGHKVDVIICPEKQFKTKNEEKSYKIPRVNSGGYDLLIELHLNASNGQGKGSEVLYYSNKGLEYATRICDKLGTVFKNRGAKLDKRLYILNSSKPTAVLIESFFCDNKEDYDKAKKLGHEGIAKLIVEGVLNKNINNEGVKQMYKHTIVYDGEVDKISATVVGWGYNDGKILICDIKDYVPGQTQNLYVVGGGAREKISSITKEKFIMIKGNDRFDTLYKALDFINR
notes: CD27L endolysin of bacteriophage ΦCD27, made by site-directed mutagenesis of pET15b-cd27l; Side-by-side dimer interface mutant; also called CD27L (C238R); CD27L C239R (as printed in the SEC-RALS methods); source: E. coli BL21(DE3), purified as wild-type CD27L (Ni-NTA, SEC); not shown: His tag, N-terminal, kept
B2: CD27L endolysin M186P mutant, full length (enzyme, bacteriophage ΦCD27, UniProt B6SBV8 1-270, looked up)
chain: B1 chain with M186P, R238C
notes: CD27L endolysin of bacteriophage ΦCD27, made by site-directed mutagenesis of pET15b-cd27l; Cleavage-site mutant; autocleavage abolished; tends to aggregate; also called CD27L M186P; source: E. coli BL21(DE3), purified as wild-type CD27L (Ni-NTA, SEC)
B3: CD27L endolysin, full length, wild type (enzyme, bacteriophage ΦCD27, UniProt B6SBV8 1-270, looked up)
chain: B1 chain with R238C
notes: CD27L endolysin of bacteriophage ΦCD27 (N-acetylmuramoyl-L-alanine amidase domain, linker, C-terminal domain); 270 residues by the construct name CD27L180-270; in pET15b with an N-terminal His tag and a thrombin site; Undergoes continuous autocleavage at M186, so samples also hold the catalytic domain and the C-terminal fragment; also called CD27L (wild-type); recombinant CD27L endolysin; source: …
B4: Proteolytic fragment of CD27L (C-terminal domain released by autocleavage at M186) (domain or fragment, bacteriophage ΦCD27, UniProt B6SBV8 186-270, looked up)
chain: MYKHTIVYDGEVDKISATVVGWGYNDGKILICDIKDYVPGQTQNLYVVGGGACEKISSITKEKFIMIKGNDRFDTLYKALDFINR
notes: CD27L endolysin of bacteriophage ΦCD27, autoproteolytic C-terminal fragment; N-terminal residue identified as M186 by LC-MS; the protein ends at 270 by the construct name CD27L180-270; About 10 kDa; The N-terminal His tag of the parent stays on the catalytic domain; also called CD27L proteolytic fragment; C-terminal domain of CD27L; source: autoproteolytic product of full-length CD27L made in E. …

Data set [1] concerns the target CTP1L endolysin, full length, wild type (bacteriophage that targets C. tyrobutyricum (phage not named)). Put plainly: SEC-RALS/RI/UV (size exclusion chromatography with right-angle light scattering); S75 10/300 GL column, 20 mM HEPES pH 7.4, 500 mM NaCl, room temperature, 75 µL injected at 6.37, 7.15 and 6.17 mg/mL, 0.4 mL/min. For orientation: In gel filtration, larger molecules generally elute earlier.

Data set [2] concerns the molecule itself. Put plainly: SAXS; CD27L C238R, 10°C, 20 mM Tris, 500 mM NaCl pH 7.4, 1.0-8.5 mg/mL; volume fractions by OLIGOMER on merged data.
Data set [3] deals with the molecule itself. Put plainly: SEC-RALS/RI/UV (size exclusion chromatography with right-angle light scattering); S75 10/300 GL column, 20 mM HEPES pH 7.4, 500 mM NaCl, room temperature, 75 µL injected at 6.37, 7.15 and 6.17 mg/mL, 0.4 mL/min.
Data set [4] deals with the molecule itself. As to the kind of experiment: crystal structure; crystals grown from full-length CD27L that held only the proteolytic C-terminal fragment; six copies in the asymmetric unit; 10-20% PEG 4000, 20 mM Tris pH 8.0; space group P212121.
Data set [5] concerns the target B3. Put plainly: SEC-RALS/RI/UV (size exclusion chromatography with right-angle light scattering); S75 10/300 GL column, 20 mM HEPES pH 7.4, 500 mM NaCl, room temperature, 75 µL injected at 6.37, 7.15 and 6.17 mg/mL, 0.4 mL/min. Particulars: both partners purified.

For orientation: stoichiometry N means a count of units in the complex or per binding partner. As for “CTP1L endolysin, full length, wild type (enzyme)”, in data set [1], the stoichiometry N is 2.
As for B1, in data set [2], the “stoichiometry N” value worked out at 2.
On to B2, for which the “stoichiometry N” value in data set [3] amounted to 2.
The same measure, in the same setting: under B3 stands 2.
Turning to B4, the binding result in data set [4] and in data set [5] was “binds” throughout.
